Measured values: paper PMC9482650, “Quantitative fragmentomics allow affinity mapping of interactomes” (Nature Communications, 2022)

T1: TJP3_3, O95049
T1 sequence (O95049 375-456, limits assumed, looked up): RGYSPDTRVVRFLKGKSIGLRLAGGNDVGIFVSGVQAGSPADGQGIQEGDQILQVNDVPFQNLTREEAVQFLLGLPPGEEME

T2: NHERF3_3, Q5T2W1
T2 sequence (Q5T2W1 238-333, limits assumed, looked up): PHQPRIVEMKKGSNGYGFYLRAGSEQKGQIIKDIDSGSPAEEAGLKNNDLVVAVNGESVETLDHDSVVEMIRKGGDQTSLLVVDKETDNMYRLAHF

T3: LIN7C, Q9NUP9
T3 sequence (Q9NUP9 88-185, limits assumed, looked up): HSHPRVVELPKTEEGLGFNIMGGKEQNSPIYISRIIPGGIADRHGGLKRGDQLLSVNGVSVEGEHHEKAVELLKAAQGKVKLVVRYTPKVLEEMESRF

T4: RHPN1, Q8TCX5
T4 sequence (Q8TCX5 508-602, limits assumed, looked up): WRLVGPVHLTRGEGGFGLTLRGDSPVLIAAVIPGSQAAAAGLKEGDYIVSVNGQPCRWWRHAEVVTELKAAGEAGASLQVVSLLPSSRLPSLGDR

T5: GRIP1_3, Q9Y3R0
T5 sequence (Q9Y3R0 247-346, limits assumed, looked up): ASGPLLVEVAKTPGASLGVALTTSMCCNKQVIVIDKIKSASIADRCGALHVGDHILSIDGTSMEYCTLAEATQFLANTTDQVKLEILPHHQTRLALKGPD

T6: ARHGEF11, O15085
T6 sequence (O15085 42-136, limits assumed, looked up): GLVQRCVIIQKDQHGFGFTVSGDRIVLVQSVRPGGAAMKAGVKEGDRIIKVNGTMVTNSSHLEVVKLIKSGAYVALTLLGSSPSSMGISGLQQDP

T7: SYNJ2BP, P57105
T7 sequence (P57105 8-110, limits assumed, looked up): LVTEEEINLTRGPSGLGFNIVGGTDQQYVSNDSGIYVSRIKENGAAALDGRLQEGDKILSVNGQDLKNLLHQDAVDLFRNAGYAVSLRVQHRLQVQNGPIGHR

T8: SNTG1, Q9NSN8
T8 sequence (Q9NSN8 52-150, limits assumed, looked up): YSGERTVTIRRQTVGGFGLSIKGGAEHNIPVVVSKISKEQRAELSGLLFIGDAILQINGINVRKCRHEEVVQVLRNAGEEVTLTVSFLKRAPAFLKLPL

T9: GRIP1_2, Q9Y3R0
T9 sequence (Q9Y3R0 145-248, limits assumed, looked up): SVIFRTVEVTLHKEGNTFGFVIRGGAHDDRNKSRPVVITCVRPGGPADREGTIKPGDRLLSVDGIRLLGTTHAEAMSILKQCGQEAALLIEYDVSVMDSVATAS

T10: RADIL, Q96JH8
T10 sequence (Q96JH8 971-1071, limits assumed, looked up): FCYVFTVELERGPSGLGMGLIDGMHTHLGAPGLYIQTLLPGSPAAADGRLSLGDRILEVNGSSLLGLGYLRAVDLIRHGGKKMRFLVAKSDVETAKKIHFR

T11: APBA2_1, Q99767
T11 sequence (Q99767 563-664, limits assumed, looked up): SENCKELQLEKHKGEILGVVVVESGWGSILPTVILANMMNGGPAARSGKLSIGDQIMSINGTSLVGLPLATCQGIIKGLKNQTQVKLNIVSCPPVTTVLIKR

T12: NHERF3_1, Q5T2W1
T12 sequence (Q5T2W1 4-100, limits assumed, looked up): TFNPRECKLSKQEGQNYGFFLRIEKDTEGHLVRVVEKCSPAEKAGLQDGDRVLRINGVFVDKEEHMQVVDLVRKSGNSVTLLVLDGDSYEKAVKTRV


Legend:
Assay in all cases: holdup assay
Parameters in all cases: key: below the threshold = too weak to quantify, mostly under pKd 3.1 to 4
Conditions in all cases: plain residues with an end cap or a label only (N-terminal biotin on a linker: ado-ado)
[1] = molecular target: T1, TJP3_3, O95049
[2] = molecular target: TJP1_2, Q07157
TJP1_2, Q07157, sequence (Q07157 181-274): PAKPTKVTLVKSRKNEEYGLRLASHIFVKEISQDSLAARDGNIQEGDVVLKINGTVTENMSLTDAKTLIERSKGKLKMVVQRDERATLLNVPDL

[3] = molecular target: LNX1_2, Q8TBB1
LNX1_2, Q8TBB1, sequence (Q8TBB1 371-470): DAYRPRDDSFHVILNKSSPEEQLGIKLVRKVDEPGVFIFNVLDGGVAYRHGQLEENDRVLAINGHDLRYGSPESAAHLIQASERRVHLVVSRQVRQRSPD

[4] = molecular target: T2, NHERF3_3, Q5T2W1
[5] = molecular target: T3, LIN7C, Q9NUP9
[6] = molecular target: DLG2_2, Q15700
[7] = molecular target: Inadl_2, Q8NI35
Inadl_2, Q8NI35, sequence (Q8NI35 238-335): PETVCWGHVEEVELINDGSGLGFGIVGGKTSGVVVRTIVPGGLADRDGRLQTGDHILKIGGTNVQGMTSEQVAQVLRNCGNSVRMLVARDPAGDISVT

[8] = molecular target: T4, RHPN1, Q8TCX5
[9] = molecular target: IL16_4, Q14005
IL16_4, Q14005, sequence (Q14005 1229-1329): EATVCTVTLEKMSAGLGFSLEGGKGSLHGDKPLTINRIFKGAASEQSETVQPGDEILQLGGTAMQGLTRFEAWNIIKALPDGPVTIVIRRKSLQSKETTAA

[10] = molecular target: DLG2_3, Q15700
[11] = molecular target: T5, GRIP1_3, Q9Y3R0
[12] = molecular target: GRID2IP_1, A4D2P6
GRID2IP_1, A4D2P6, sequence (A4D2P6 1-87): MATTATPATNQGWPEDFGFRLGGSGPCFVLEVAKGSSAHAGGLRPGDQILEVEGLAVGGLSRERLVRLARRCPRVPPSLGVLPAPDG

[13] = molecular target: T6, ARHGEF11, O15085
[14] = molecular target: T7, SYNJ2BP, P57105
[15] = molecular target: T8, SNTG1, Q9NSN8
[16] = molecular target: Inadl_10, Q8NI35
Inadl_10, Q8NI35, sequence (Q8NI35 1673-1763): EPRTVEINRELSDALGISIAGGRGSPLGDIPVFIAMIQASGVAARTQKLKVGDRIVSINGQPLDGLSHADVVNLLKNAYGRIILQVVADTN

[17] = molecular target: PDZRN4_1, Q6ZMN7
PDZRN4_1, Q6ZMN7, sequence (Q6ZMN7 213-318): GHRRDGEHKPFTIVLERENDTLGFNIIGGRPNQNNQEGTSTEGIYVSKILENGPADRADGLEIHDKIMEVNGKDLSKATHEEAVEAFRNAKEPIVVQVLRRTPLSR

[18] = molecular target: GRIP2_6, Q9C0E4
GRIP2_6, Q9C0E4, sequence (Q9C0E4 648-740): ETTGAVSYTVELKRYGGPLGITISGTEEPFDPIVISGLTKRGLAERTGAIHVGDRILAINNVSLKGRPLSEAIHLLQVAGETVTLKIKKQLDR

[19] = molecular target: ARHGEF12, Q9NZN5-2
ARHGEF12, Q9NZN5-2, sequence (Q9NZN5 other isoform, or with tags, fused parts or gaps): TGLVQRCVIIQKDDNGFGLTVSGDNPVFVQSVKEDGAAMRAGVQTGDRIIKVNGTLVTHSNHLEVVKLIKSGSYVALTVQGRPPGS

[20] = molecular target: HTRA1, Q92743
HTRA1, Q92743, sequence (Q92743 360-477): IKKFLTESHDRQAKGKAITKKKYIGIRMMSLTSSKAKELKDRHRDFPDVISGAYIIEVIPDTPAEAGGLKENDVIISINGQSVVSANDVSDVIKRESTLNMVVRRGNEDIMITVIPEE

[21] = molecular target: T9, GRIP1_2, Q9Y3R0
[22] = molecular target: CASK, O14936
CASK, O14936, sequence (O14936 487-570): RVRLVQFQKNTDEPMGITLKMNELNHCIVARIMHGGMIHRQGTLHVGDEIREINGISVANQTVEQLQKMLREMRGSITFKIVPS

[23] = molecular target: T10, RADIL, Q96JH8
[24] = molecular target: T11, APBA2_1, Q99767
[25] = molecular target: T12, NHERF3_1, Q5T2W1
[26] = molecular target: MAGI1_1, Q96QZ7
MAGI1_1, Q96QZ7, sequence (Q96QZ7 1-106): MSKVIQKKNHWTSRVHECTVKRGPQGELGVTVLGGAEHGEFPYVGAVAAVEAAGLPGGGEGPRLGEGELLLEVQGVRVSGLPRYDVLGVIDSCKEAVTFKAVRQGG

Binder	pKd [1]	pKd [2]	pKd [3]	pKd [4]	pKd [5]	pKd [6]	pKd [7]	pKd [8]	pKd [9]	pKd [10]	pKd [11]	pKd [12]	pKd [13]	pKd [14]	pKd [15]	pKd [16]	pKd [17]	pKd [18]	pKd [19]	pKd [20]	further results
PELESKESVL [SLC1A4, P43007]	below the threshold	below the threshold	below the threshold	below the threshold	4.28	3.71	below the threshold	4.49	below the threshold	below the threshold	below the threshold	below the threshold	3.94	4.34	3.68	below the threshold	4.66	below the threshold	4.53	4.41	pKd [21]: below the threshold; pKd [22]: below the threshold; pKd [23]: below the threshold; pKd [24]: below the threshold; pKd [25]: 4.51; pKd [26]: below the threshold
EEDTAEKDEL [HSPA5, P11021]	below the threshold	below the threshold	below the threshold	below the threshold	below the threshold	below the threshold	below the threshold	below the threshold	3.51	below the threshold	below the threshold	below the threshold	3.56	3.52	below the threshold	below the threshold	below the threshold	below the threshold	below the threshold	below the threshold	pKd [21]: below the threshold; pKd [22]: below the threshold; pKd [23]: below the threshold; pKd [24]: below the threshold; pKd [25]: below the threshold; pKd [26]: 3.51
RQSILFSTEV [BCR, P11274]	below the threshold	3.62	3.74	below the threshold	3.63	4.63	below the threshold	3.94	3.54	4	below the threshold	below the threshold	5.19	5.28	4.67	4.32	3.78	4.47	5.09	4.47	pKd [21]: below the threshold; pKd [22]: below the threshold; pKd [23]: 4.48; pKd [24]: below the threshold; pKd [25]: 5.78; pKd [26]: below the threshold
